From US5698421
Where a chain is given by its changes, count along the chain named.

What was measured:
[1] = molecular target: T1, aI2-encoded protein P714T P714T (Saccharomyces cerevisiae) (UniProt P03876); assay: cleavage_in_vitro; details: relative to Example 1 RNP
T1 sequence: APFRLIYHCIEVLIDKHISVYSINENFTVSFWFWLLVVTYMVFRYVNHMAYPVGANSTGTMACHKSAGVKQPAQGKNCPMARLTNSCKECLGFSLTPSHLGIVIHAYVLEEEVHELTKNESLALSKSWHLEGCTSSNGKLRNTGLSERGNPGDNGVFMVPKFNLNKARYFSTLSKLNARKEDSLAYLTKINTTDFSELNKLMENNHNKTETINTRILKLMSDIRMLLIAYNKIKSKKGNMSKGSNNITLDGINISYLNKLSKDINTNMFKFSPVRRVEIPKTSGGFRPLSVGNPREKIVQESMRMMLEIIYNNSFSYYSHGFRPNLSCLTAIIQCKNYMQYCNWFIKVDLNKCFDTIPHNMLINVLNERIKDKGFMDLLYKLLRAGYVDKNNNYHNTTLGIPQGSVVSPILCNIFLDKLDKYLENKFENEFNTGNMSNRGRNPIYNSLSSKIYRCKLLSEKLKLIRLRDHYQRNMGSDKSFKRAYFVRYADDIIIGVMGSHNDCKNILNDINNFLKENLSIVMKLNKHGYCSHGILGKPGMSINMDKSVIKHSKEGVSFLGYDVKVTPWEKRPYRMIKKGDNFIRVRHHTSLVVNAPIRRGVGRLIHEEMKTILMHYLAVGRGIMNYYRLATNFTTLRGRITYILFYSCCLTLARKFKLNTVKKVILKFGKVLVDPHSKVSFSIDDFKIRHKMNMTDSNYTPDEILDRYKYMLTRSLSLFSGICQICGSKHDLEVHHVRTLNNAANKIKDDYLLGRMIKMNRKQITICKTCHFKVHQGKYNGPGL

[2] = molecular target: T2, aI2-encoded protein (wild-type, 62 kDa), aI2 RNP particle (Saccharomyces cerevisiae) (UniProt P03876); assay: cleavage_in_vitro; details: 20 mM Mg
T2 sequence: T1 sequence with T714P

Row | Substance | relative cleavage activity ([1]; antisense strand) [%] | relative cleavage activity ([1]; sense strand) [%] | binding signal (relative rate) [2]
1 | excised aI2 RNA, strain-specific mutated ; pE2E3-derived substrate, E2-E3 target | 6 | 25 | 
2 | excised aI2 intron RNA ; pE2E3 142 nt RNA substrate |  |  | 1
